Test [1] concerns the target extracellular domain of human LEPR with an N-terminal myc-myc tag, GPI-anchored on HEK293 cells (human) (UniProt P48357). Description: FACS, secondary alone, HEK293/hLEPR-GPI cells, 1 µM Leptin. Background: In flow cytometry, cells or beads pass a laser one at a time.
The target is the same in test [2]. Description: FACS, secondary alone, HEK293/hLEPR-GPI cells, no added Leptin.

Our source for the Binding Ratio (normalized to unstained) values is patent publication US20200123264A1.

Sequence of extracellular domain of human LEPR with an N-terminal myc-myc tag, GPI-anchored on HEK293 cells (human) (P48357 22-839 limits assumed): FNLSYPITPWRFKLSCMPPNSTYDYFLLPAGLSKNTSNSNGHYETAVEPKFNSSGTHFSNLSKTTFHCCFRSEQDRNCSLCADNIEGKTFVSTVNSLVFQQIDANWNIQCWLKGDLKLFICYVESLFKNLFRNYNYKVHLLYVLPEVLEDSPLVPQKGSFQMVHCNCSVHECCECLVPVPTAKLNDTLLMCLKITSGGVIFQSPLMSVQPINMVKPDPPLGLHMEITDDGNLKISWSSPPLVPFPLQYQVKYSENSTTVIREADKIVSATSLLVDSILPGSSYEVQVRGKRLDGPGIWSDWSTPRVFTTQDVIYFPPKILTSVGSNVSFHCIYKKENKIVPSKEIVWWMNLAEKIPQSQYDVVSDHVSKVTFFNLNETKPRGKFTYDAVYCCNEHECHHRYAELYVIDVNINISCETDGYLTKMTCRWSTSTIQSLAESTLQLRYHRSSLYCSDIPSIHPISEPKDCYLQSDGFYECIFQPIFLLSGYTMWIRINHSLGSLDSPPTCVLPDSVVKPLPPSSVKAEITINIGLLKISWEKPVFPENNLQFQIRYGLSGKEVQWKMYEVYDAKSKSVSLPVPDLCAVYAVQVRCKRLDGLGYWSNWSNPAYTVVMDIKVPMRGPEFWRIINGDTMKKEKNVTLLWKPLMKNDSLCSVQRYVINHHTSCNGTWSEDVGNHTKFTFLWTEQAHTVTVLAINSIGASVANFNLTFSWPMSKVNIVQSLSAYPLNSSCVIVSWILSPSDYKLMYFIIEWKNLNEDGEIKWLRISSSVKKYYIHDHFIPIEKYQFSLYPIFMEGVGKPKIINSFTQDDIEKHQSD

With Anti-human IgG secondary antibody alone, the Binding Ratio (normalized to unstained) in test [1] and in test [2] was 3 fold in each case.

As to Anti-mouse IgG secondary antibody alone, the Binding Ratio (normalized to unstained) in test [1] and in test [2] was 2 fold in each case.
